Data reported in patent EP4640700A1 (Harbour Biomed (Shanghai) Co., Ltd, dated 2025).

What was measured:
human serum albumin = target: T1, human serum albumin (human, UniProt P02768 25-609); test: binding to human serum albumin, Fig. 19; method not described
T1 construct: Bought reagent; also called HSA

PSMA = PSMA (UniProt Q04609 1-750); test: cell-based or functional assay
BCMA = target: T2, BCMA (UniProt Q02223 1-184); test: cell-based or functional assay
T2 sequence (looked up): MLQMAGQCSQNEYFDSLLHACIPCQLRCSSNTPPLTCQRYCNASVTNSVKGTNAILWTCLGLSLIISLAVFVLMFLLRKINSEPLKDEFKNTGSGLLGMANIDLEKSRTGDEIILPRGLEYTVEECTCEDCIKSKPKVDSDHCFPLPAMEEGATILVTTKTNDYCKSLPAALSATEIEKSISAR

human ROR1 = human ROR1 (human, UniProt Q01973 30-937); test: cell-based or functional assay
Sequence of human ROR1 (Q01973 30-937): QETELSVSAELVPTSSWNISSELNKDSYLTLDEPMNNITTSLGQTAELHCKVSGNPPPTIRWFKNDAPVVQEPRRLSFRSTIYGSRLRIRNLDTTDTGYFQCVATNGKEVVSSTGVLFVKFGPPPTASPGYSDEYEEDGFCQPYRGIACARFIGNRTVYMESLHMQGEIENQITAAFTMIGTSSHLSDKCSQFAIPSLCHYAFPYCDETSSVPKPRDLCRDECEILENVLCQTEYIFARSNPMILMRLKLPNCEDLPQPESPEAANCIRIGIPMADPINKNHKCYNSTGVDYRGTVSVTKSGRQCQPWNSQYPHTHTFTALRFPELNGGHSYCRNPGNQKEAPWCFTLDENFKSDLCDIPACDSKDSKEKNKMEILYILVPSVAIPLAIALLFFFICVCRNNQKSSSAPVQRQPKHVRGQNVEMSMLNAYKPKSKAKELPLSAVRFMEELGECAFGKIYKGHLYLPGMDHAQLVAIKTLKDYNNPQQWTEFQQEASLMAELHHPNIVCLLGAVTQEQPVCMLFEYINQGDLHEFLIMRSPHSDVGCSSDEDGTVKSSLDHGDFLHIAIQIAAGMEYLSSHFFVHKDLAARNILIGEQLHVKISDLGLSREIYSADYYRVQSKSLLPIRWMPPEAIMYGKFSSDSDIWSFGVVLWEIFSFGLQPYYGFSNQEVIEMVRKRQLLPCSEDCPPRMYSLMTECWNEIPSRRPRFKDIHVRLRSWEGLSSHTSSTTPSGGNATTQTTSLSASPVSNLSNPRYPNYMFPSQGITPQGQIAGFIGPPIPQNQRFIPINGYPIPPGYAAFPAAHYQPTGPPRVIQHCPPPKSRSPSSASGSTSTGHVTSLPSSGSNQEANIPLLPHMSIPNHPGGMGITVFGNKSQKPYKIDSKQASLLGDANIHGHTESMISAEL

human B7H4 [1] = target: T3, human B7H4 (human, UniProt Q7Z7D3 25-282); test: cell-based or functional assay
T3 sequence (looked up): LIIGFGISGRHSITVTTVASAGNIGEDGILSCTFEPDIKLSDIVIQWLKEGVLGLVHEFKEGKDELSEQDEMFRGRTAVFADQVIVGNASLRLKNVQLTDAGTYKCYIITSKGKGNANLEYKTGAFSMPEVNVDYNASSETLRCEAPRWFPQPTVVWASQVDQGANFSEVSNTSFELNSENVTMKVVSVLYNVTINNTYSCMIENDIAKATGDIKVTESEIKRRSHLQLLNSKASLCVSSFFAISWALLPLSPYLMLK

human B7H4 [2] = target: T3, human B7H4; test: flow cytometry (FACS) on SK-BR-3 cells with high B7H4 expression

T1 sequence (P02768 25-609 limits assumed): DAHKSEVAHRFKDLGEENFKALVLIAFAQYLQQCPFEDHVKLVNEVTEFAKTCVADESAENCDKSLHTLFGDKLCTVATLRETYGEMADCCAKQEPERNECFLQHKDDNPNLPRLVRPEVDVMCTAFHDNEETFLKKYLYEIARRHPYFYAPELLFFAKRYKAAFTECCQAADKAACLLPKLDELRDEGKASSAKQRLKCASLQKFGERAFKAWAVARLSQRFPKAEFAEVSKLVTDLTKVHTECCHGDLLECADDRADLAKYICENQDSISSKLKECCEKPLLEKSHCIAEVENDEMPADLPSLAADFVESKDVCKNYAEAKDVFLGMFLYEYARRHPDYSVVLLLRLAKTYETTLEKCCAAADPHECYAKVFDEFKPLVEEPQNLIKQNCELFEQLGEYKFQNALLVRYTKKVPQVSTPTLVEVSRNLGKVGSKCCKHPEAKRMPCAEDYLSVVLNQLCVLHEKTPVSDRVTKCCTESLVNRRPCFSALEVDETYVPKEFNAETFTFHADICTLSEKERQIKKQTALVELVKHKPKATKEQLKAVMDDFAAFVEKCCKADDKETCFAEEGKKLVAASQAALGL
Sequence of PSMA (Q04609 whole entry): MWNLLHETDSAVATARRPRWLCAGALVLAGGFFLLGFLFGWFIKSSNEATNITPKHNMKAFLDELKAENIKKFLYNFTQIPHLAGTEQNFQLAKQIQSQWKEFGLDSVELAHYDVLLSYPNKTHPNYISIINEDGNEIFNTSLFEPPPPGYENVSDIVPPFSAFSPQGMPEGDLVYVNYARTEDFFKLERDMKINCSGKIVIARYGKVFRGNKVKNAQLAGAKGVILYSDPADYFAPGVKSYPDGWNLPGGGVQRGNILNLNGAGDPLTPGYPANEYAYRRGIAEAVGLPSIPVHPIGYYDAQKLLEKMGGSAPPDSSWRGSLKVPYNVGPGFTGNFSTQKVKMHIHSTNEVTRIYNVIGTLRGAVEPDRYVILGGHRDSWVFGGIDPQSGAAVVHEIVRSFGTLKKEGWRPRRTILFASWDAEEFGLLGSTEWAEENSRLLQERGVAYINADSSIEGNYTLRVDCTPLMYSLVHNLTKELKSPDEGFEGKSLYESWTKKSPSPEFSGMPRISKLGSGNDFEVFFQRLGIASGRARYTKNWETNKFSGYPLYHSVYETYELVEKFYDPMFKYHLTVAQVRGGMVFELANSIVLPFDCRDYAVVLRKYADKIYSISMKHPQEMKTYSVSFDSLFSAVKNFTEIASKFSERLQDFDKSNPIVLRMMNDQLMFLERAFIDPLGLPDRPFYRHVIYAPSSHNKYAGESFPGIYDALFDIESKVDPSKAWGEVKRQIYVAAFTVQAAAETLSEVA

B1: PR000929 (VHH)
VHH: EVQLLESGGGLVQPGGSLRLSCAASGFTFRSFGMSWVRQAPGKGPEWVSSISGSGSDTLYADSVKGRFTISRDNSKNTLYLQMNSLRPEDTAVYYCTIGGSLSRSSQGTLVTVSS
notes: Humanized single-domain antibody, no Fc; also called anti-HSA Alb23-his; single-domain antibody Alb23
- binding result (human serum albumin): binds

B2: PR001197 (bispecific antibody)
chain 1: QVQLVESGGGLVKPGESLRLSCAASGFTFSDYYMYWVRQAPGKGLEWVAIISDGGYYTYYSDIIKGRFTISRDNAKNSLYLQMNSLKAEDTAVYYCARGFPLLRHGAMDYWGQGTLVTVSSASTKGPSVFPLAPSSKSTSGGTAALGCLVKDYFPEPVTVSWNSGALTSGVHTFPAVLQSSGLYSLSSVVTVPSSSLGTQTYICNVNHKPSNTKVDKKVEPKSC
chain 2: DIQMTQSPSSLSASVGDRVTITCKASQNVDTNVAWYQQKPGQAPKSLIYSASYRYSDVPSRFSGSASGTDFTLTISSVQSEDFATYYCQQYDSYPYTFGGGTKLEIKRTVAAPSVFIFPPSDEQLKSGTASVVCLLNNFYPREAKVQWKVDNALQSGNSQESVTEQDSKDSTYSLSSTLTLSKADYEKHKVYACEVTHQGLSSPVTKSFNRGECEVQLVESGGGLVQPGGSLKLSCAASGFTFNTYAMNWVRQASGKGLEWVGRIRSKYNNYATYYADSVKDRFTISRDDSKSTLYLQMNSLKTEDTAVYYCVRHGNFGNSYVSWFAYWGQGTLVTVSSASTKGPSVFPLAPSSKSTSGGTAALGCLVKDYFPEPVTVSWNSGALTSGVHTFPAVLQSSGLYSLSSVVTVPSSSLGTQTYICNVNHKPSNTKVDKKVEPKSC
light: QAVVTQEPSLTVSPGGTVTLTCRSSTGAVTTSNYANWVQQKPGQAPRGLIGGTNKRAPWTPARFSGSLLGDKAALTLLGAQPEDEAEYFCALWYSNLWVFGGGTKLTVLGQPKAAPSVTLFPPSSEELQANKATLVCLISDFYPGAVTVAWKADSSPVKAGVETTTPSKQSNNKYAASSYLSLTPEQWKSHRSYSCQVTHEGSTVEKTVAPTECS
- Cell killing EC50 (PSMA): 0.143 nM
- Maximum killing rate (%) (PSMA): 52.4%

B3: PR001198 (bispecific antibody)
chain 1: QVQLVQSGAEVKKPGSSVKVSCKASGGTFSNYWMHWVRQAPGQGLEWMGATYRGHSDTYYNQKFKGRVTITADKSTSTAYMELSSLRSEDTAVYYCARGAIYDGYDVLDNWGQGTLVTVSSASTKGPSVFPLAPSSKSTSGGTAALGCLVKDYFPEPVTVSWNSGALTSGVHTFPAVLQSSGLYSLSSVVTVPSSSLGTQTYICNVNHKPSNTKVDKKVEPKSC
chain 2: not shown
light: QAVVTQEPSLTVSPGGTVTLTCRSSTGAVTTSNYANWVQQKPGQAPRGLIGGTNKRAPWTPARFSGSLLGDKAALTLLGAQPEDEAEYFCALWYSNLWVFGGGTKLTVLGQPKAAPSVTLFPPSSEELQANKATLVCLISDFYPGAVTVAWKADSSPVKAGVETTTPSKQSNNKYAASSYLSLTPEQWKSHRSYSCQVTHEGSTVEKTVAPTECS
- Cell killing EC50 (BCMA): 0.0178 nM
- Maximum killing rate (%) (BCMA): 61.3%

B4: PR001200 (bispecific antibody)
chain 1: EVQLVESGGGLVQPGRSLRLSCTASGSDINDYPITWVRQAPGQGLEWIGFINSGGSTWYASWVKGRFTISRDDSKSIAYLQMNSLKTEDTAVYYCARGYSTYYRDFNIWGQGTLVTVSSASTKGPSVFPLAPSSKSTSGGTAALGCLVKDYFPEPVTVSWNSGALTSGVHTFPAVLQSSGLYSLSSVVTVPSSSLGTQTYICNVNHKPSNTKVDKKVEPKSC
chain 2: DIQMTQSPSSLSASVGDRVTINCQASQSIDSNLAWFQQKPGQPPKLLIYRASNLASGVPDRFSGSGSGTDFTLTISSLEAEDVATYYCLGGVGAVSYRTSFGGGTKVEIKRTVAAPSVFIFPPSDEQLKSGTASVVCLLNNFYPREAKVQWKVDNALQSGNSQESVTEQDSKDSTYSLSSTLTLSKADYEKHKVYACEVTHQGLSSPVTKSFNRGECEVQLVESGGGLVQPGGSLKLSCAASGFTFNTYAMNWVRQASGKGLEWVGRIRSKYNNYATYYADSVKDRFTISRDDSKSTLYLQMNSLKTEDTAVYYCVRHGNFGNSYVSWFAYWGQGTLVTVSSASTKGPSVFPLAPSSKSTSGGTAALGCLVKDYFPEPVTVSWNSGALTSGVHTFPAVLQSSGLYSLSSVVTVPSSSLGTQTYICNVNHKPSNTKVDKKVEPKSC
light: QAVVTQEPSLTVSPGGTVTLTCRSSTGAVTTSNYANWVQQKPGQAPRGLIGGTNKRAPWTPARFSGSLLGDKAALTLLGAQPEDEAEYFCALWYSNLWVFGGGTKLTVLGQPKAAPSVTLFPPSSEELQANKATLVCLISDFYPGAVTVAWKADSSPVKAGVETTTPSKQSNNKYAASSYLSLTPEQWKSHRSYSCQVTHEGSTVEKTVAPTECS
- Cell killing EC50 (human ROR1): 1.16 nM
- Maximum killing rate (%) (human ROR1): 54.8%

B5: PR000317 (bispecific antibody)
chain 1: EVQLVQSGAEVKKPGASVKVSCKASGYTFTSYWIGWVRQAPGQGLEWIGDIYPGGGYTNYNEKFKGRVTITRDTSTSTAYLELSSLRSEDTAVYYCARLAGSSYRGAMDSWGQGTLVTVSSASTKGPSVFPLAPSSKSTSGGTAALGCLVKDYFPEPVTVSWNSGALTSGVHTFPAVLQSSGLYSLSSVVTVPSSSLGTQTYICNVNHKPSNTKVDKKVEPKSC
chain 2: DIQMTQSPSSLSASVGDRVTITCKASQGFNKYVAWYQQKPGKAPKLLIYYTSTLQPGVPSRFSGSGSGRDYTLTISSLQPEDFATYYCLQYGDLLYAFGQGTKVEIKRTVAAPSVFIFPPSDEQLKSGTASVVCLLNNFYPREAKVQWKVDNALQSGNSQESVTEQDSKDSTYSLSSTLTLSKADYEKHKVYACEVTHQGLSSPVTKSFNRGECEVQLVESGGGLVQPKGSLKLSCAASGFTFNTYAMNWVRQAPGKGLEWVARIRSKYNNYATYYADSVKDRFTISRDDSQSILYLQMNNLKTEDTAMYYCVRHGNFGNSYVSWFAYWGQGTLVTVSAASTKGPSVFPLAPSSKSTSGGTAALGCLVKDYFPEPVTVSWNSGALTSGVHTFPAVLQSSGLYSLSSVVTVPSSSLGTQTYICNVNHKPSNTKVDKKVEPKSC
light: QAVVTQESALTTSPGETVTLTCRSSTGAVTTSNYANWVQEKPDHLFTGLIGGTNKRAPGVPARFSGSLIGDKAALTITGAQTEDEAIYFCALWYSNLWVFGGGTKLTVLGQPKAAPSVTLFPPSSEELQANKATLVCLISDFYPGAVTVAWKADSSPVKAGVETTTPSKQSNNKYAASSYLSLTPEQWKSHRSYSCQVTHEGSTVEKTVAPTECS
notes: Three-chain Fab-Fab without Fc; N-terminal Fab-A from PR000157 (anti-B7H4), C-terminal Fab-B from PR000260 (anti-CD3 SP34); also called Anti-B7H4xCD3 1D11-SP34 Fab-Fab; B7H4xCD3 "κ/λ" Fab-Fab antibody
- Cell killing EC50 (human B7H4 [1]): 0.0018 nM
- Maximum killing rate (%) (human B7H4 [1]): 33.9%
- EC50 (human B7H4 [2]): 22 nM

B6: PR001325 (bispecific antibody)
chain 1: EVQLVQSGAEVKKPGASVKVSCKASGYTFTSYWIGWVRQAPGQGLEWIGDIYPGGGYTNYNEKFKGRVTITRDTSTSTAYLELSSLRSEDTAVYYCARLAGSSYRGAMDSWGQGTLVTVSSASTKGPSVFPLAPSSKSTSGGTAALGCLVKDYFPEPVTVSWNSGALTSGVHTFPAVLQSSGLYSLSSVVTVPSSSLGTQTYICNVNHKPSNTKVDKKVEPKSC
chain 2: DIQMTQSPSSLSASVGDRVTITCKASQGFNKYVAWYQQKPGKAPKLLIYYTSTLQPGVPSRFSGSGSGRDYTLTISSLQPEDFATYYCLQYGDLLYAFGQGTKVEIKRTVAAPSVFIFPPSDEQLKSGTASVVCLLNNFYPREAKVQWKVDNALQSGNSQESVTEQDSKDSTYSLSSTLTLSKADYEKHKVYACEVTHQGLSSPVTKSFNRGECEVQLVESGGGLVQPGGSLKLSCAASGFTFNTYAMNWVRQASGKGLEWVGRIRSKYNNYATYYADSVKDRFTISRDDSKSTLYLQMNSLKTEDTAVYYCVRHGNFGNSYVSWFAYWGQGTLVTVSSASTKGPSVFPLAPSSKSTSGGTAALGCLVKDYFPEPVTVSWNSGALTSGVHTFPAVLQSSGLYSLSSVVTVPSSSLGTQTYICNVNHKPSNTKVDKKVEPKSCGGGGSGGGGSEVQLLESGGGLVQPGGSLRLSCAASGFTFRSFGMSWVRQAPGKGPEWVSSISGSGSDTLYADSVKGRFTISRDNSKNTLYLQMNSLRPEDTAVYYCTIGGSLSRSSQGTLVTVSS
light: QAVVTQEPSLTVSPGGTVTLTCRSSTGAVTTSNYANWVQQKPGQAPRGLIGGTNKRAPWTPARFSGSLLGDKAALTLLGAQPEDEAEYFCALWYSNLWVFGGGTKLTVLGQPKAAPSVTLFPPSSEELQANKATLVCLISDFYPGAVTVAWKADSSPVKAGVETTTPSKQSNNKYAASSYLSLTPEQWKSHRSYSCQVTHEGSTVEKTVAPTECS
notes: no Fc; also called anti-B7H4xCD3 1D11C2-hzSP34_PR512 Fab-Fab-(G4S)2-Alb23; B7H4xCD3xALB trispecific antibody
- binding result (human serum albumin): binds
